Key:
[1] = target: T1, NPR3 (Arabidopsis thaliana, UniProt Q8L746); assay: [3H]-SA binding
T1 sequence (Q8L746 1-586): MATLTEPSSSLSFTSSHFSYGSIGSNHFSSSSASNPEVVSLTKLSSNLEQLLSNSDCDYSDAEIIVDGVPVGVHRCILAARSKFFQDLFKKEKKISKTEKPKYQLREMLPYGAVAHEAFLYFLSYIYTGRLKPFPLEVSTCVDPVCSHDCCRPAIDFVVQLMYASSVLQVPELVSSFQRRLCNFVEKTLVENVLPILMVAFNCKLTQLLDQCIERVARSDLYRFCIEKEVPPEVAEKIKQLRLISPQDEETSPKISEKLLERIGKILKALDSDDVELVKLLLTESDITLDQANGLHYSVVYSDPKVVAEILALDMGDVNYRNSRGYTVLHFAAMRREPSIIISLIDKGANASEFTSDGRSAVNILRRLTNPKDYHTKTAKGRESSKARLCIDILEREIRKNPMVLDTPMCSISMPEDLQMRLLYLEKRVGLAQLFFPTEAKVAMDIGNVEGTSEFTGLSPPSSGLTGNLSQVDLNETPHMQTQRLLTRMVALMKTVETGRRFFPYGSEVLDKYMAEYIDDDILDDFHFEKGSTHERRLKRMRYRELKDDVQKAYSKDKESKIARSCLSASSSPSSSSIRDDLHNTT

[2] = target: T2, His-MBP-NPR1 (Arabidopsis thaliana, UniProt P93002 1-593); assay: pull-down
T2 sequence: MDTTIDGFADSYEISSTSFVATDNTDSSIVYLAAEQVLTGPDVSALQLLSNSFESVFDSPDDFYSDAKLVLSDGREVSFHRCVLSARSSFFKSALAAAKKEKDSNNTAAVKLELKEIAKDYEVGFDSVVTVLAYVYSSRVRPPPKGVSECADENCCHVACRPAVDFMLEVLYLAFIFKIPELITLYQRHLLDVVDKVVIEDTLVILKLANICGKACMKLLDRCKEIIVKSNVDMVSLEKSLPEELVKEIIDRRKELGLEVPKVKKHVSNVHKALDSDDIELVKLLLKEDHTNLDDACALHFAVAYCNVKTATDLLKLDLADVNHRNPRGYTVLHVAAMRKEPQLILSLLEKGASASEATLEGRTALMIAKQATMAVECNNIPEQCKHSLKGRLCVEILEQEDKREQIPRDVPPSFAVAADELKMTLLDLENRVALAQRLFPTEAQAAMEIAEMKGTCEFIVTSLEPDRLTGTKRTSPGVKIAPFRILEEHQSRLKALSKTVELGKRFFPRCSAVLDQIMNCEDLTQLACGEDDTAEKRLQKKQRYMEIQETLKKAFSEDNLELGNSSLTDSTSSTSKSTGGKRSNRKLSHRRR

[3] = target: the molecule itself; assay: SEC

Molecule: O=C(O)c1ccccc1O [SA, Salicylic acid]
- Kd [1]: 981 nM

B1: GST-NPR4 (natural protein)
chain: MAATAIEPSSSISFTSSHLSNPSPVVTTYHSAANLEELSSNLEQLLTNPDCDYTDAEIIIEEEANPVSVHRCVLAARSKFFLDLFKKDKDSSEKKPKYQMKDLLPYGNVGREAFLHFLSYIYTGRLKPFPIEVSTCVDSVCAHDSCKPAIDFAVELMYASFVFQIPDLVSSFQRKLRNYVEKSLVENVLPILLVAFHCDLTQLLDQCIERVARSDLDRFCIEKELPLEVLEKIKQLRVKSVNIPEVEDKSIERTGKVLKALDSDDVELVKLLLTESDITLDQANGLHYAVAYSDPKVVTQVLDLDMADVNFRNSRGYTVLHIAAMRREPTIIIPLIQKGANASDFTFDGRSAVNICRRLTRPKDYHTKTSRKEPSKYRLCIDILEREIRRNPLVSGDTPTCSHSMPEDLQMRLLYLEKRVGLAQLFFPAEANVAMDVANVEGTSECTGLLTPPPSNDTTENLGKVDLNETPYVQTKRMLTRMKALMKTVETGRRYFPSCYEVLDKYMDQYMDEEIPDMSYPEKGTVKERRQKRMRYNELKNDVKKAYSKDKVARSCLSSSSPASSLREALENPT
- binding result [2]: binds

B2: purified recombinant NPR4 protein (natural protein)
chain: B1 chain
- stoichiometry N [3]: ~4
